# Values of other authors as cited in PMC12525728, “Safety, Pharmacokinetics, Translational and Molecular Mechanistic Insights on the Prostate Cancer Recurrence Suppressor Pseurotin A” (Molecules, 2025).
# Like-named read-outs stand apart in the source and are kept apart here.
# B1: evolocumab (antibody, chains of the INN, looked up, V domains shown)
# VH: EVQLVQSGAEVKKPGASVKVSCKASGYTLTSYGISWVRQAPGQGLEWMGWVSFYNGNTNYAQKLQGRGTMTTDPSTSTAYMELRSLRSDDTAVYYCARGYGMDVWGQGTTVTVSS
# VL: ESALTQPASVSGSPGQSITISCTGTSSDVGGYNSVSWYQQHPGKAPKLMIYEVSNRPSGVSNRFSGSKSGNTASLTISGLQAEDEADYYCNSYTSTSMVFGGGTKLTVL
# notes: FDA-approved marketed humanized monoclonal antibody that interferes with the PCSK9-LDLR PPI
# Parameters: method as in PMID 39441027
# Conditions: cited from earlier work; for relative % reduction for LDL-C: propensity score matching analysis
molecule,measurement,setting,value
B1,total cholesterol reduction,"clinical trials, after 8 dosing weeks",−26.5%
same,relative % reduction for LDL-C,females,−42.7%
same,relative % reduction for LDL-C,males,−54.4%
